From paper PMC9253517 (The Journal of Experimental Medicine, 2022)

B1: JR043 (antibody, V domains shown)
VH: QVQLVQSGAEVKKPGASVKVSCKASGYTFTRNYMHWVRQAPGQGLEWMGIINPSGGSTSYAQKFQGRVTMTRDTSTSTVYMELSSLRSEDTAVYYCARVDSSSWSHCDYWGQGTLVTVSS
VL: DIQLTQSPSSLSASVGDRVTITCRASQSISTYLNWYQQNPGKAPKLLIYGASNLQSGVPSRFSGSGSGTDFTLTISSLQPEDFATYYCQQSYSTLEITFGQGTRLEIK
B2: JR177 (antibody, V domains shown)
VH: QVQLVESGGGVVQPGRSLRLSCAASGFTLSSYAMHWVRQAPGKGLEWVALILYDGSNKYYADSVKGRFTISRDNSKNTVYLQMNSLRAEDTAVYYCARVRVWGRVVVAASFYYGMDVWGQGTTVTVSS
VL: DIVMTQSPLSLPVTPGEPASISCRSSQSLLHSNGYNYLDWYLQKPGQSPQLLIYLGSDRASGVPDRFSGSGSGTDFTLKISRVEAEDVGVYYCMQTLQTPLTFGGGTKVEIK
B3: JR173 (antibody, V domains shown)
VH: EVQLVESGGGLVQPGRSLRLSCAASGFTFDDYAMHWVRQAPGKGLEWVSGISWNSGRKGYADSVKGRFTISRDNAKNSLHLQMNSLRAEDTALYYCAKDIQEAIEVSSIGFDYWGQGTLVTVSS
VL: QSVLTQPPSVSGAPGQRVTISCTGSSSNIGAGYDVHWYQQLPGTAPKLLIYGNSNRPSGVPDRFSGSKSGTSASLAITGLQAEDEADYYCQSYDSSLSGYAVFGGGTQLTVL
B4: JR309 (antibody, V domains shown)
VH: EVQLVESGGGLVQPGRSLRLSCAASGFTFDDYAIHWVRQAPGKGLEWVSGSSWNSGTIGYADSVKGRFTISRDNAKNSLYLQMNSLRAEDTALYYCAKDWGTGDYNSYYFDYWGQGTLVTVSS
VL: SYELTQPPSVSVAPGKTARITCGGNNIGSKSVHWYQQKPGQAPVVVVYDDSDRPSGNPERFSGSNSGNTATLTIRRVEAGDEADYYCQVWDSNSDQYVFGTGTKVTVL
B5: JR328 (antibody, V domains shown)
VH: EVQLVESGGGLIQPGGSLRLSCAASGVIVSRNYMSWVRQAPGKGLEWVAVIYSGGSTFYADSVKGRFTISRDDSKNTLFLQMNALRAEDTAVYYCARDGDYYGMDVWGRGTTVTVSS
VL: DIQLTQSPSFLSASVGDRVTITCRASQGISNYLAWYQQKPGTAPRLLIYAAFTLQSGVPSRFSGSGSGTEFTLTISSLQPEDFATYYCQQLNTYPGFTFGPGTKVDIK
B6: JR233 (antibody, V domains shown)
VH: QVQRVQSGAEVKKPGSSVKVSCKASGGTFSSYAFSWVRQAPGQGLEWMGGIIPILRIADYAQKFQGRVTITADKSTSTAFMELSSLRSEDTAVYYCARGQIELVPAARVDYFDYWGQGTLVTVSS
VL: DIQLTQSPSSLSASVGDRVTITCRASQSISSYLNWYQQKPGKAPKLLIYAASSLQSGVPSRFSGSGSGTDFTLTISSLQPEDFATYYCQQSYTTSFGPGTKVDIK
B7: JR042 (antibody, V domains shown)
VH: EVQLVESGGGLIQPGGSLRLSCVASGVTVSSNYMSWVRQAPGKGLEWVSVIYPGGTTYYADSVKGRFTISRDNSKNTLYLQMTSLRAEDTAVYYCARGGDYHYGMDVWGQGTTVTVSS
VL: DIQLTQSPSFLSASVGDRVTITCRASQGISSYLAWYQQKPGKAPKLLIYAASTLQSGVPSRFSGSGSGTEFTLTISSLQPEDFATYYCQLLNSYPPTFGQGTKLEIK
B8: JR039 (antibody, V domains shown)
VH: QLQLQESGPGLVKPSETLSLTCTVSGGSISSSSYYWGWIRQPPGKGLEWIGSIYYSGSTYYNPSLKSRVSISVDTSKNQFSLKLSSVTAADTAVYYCARPGPAYYDRSGYYRAEYFQRWGQGTLVTVSS
VL: AIRMTQSPSSLSASVGDRVTITCQASQDISDYLSWYQQKPGKAPKLLIYDASNLETGVPSRFSGSGSGTDFTFTISSLQPEDIATYYCQQYDNLPLTFGGGTKVEIK

How the values were obtained:
[1] = target: T1, SARS-CoV-2 Wuhan-Hu-1 RBD (SARS-CoV-2, Wuhan-Hu-1 (GenBank …, UniProt P0DTC2)); assay: cell-based or functional assay
[2] = target: T1, SARS-CoV-2 Wuhan-Hu-1 RBD; assay: BLI; details: both partners purified

Row | Binder | neutralisation IC50, Wuhan-Hu-1 pseudovirus [1] [µg/mL] | binding result [2]
1 | B1 | 0.00587 | binds
2 | B2 | 0.00328 | binds
3 | B3 | 0.0166 | binds
4 | B4 | 0.0155 | binds
5 | B5 | 0.0167 | 
6 | B6 | 0.00933 | binds
7 | B7 | 0.0209 | binds
8 | B8 | 0.0219 | binds
